According to patent publication US20240002795A1 (published 2024):

T1: RET wild type peptide on HLA-DPA1*01:03 / HLA-DPB1*04:02 (human)
T1 peptide: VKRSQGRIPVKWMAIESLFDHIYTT

T2: RET M918T peptide on HLA-DPA1*01:03 / HLA-DPB1*04:02 (human)
T2 peptide: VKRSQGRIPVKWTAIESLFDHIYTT

T3: RET wild type peptide on HLA-DPA1*01:03 / HLA-DPB1*04:01 (human)
T3 peptide: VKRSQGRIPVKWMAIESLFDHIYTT

T4: RET M918T peptide on HLA-DPA1*01:03 / HLA-DPB1*04:01 (human)
T4 peptide: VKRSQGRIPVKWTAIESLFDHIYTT


Key:
Assay in all cases: activation reporter or marker
[1] = target: T1, RET wild type peptide on HLA-DPA1*01:03 …
[2] = target: T2, RET M918T peptide on HLA-DPA1*01:03 / …
[3] = target: T3, RET wild type peptide on HLA-DPA1*01:03 …
[4] = target: T4, RET M918T peptide on HLA-DPA1*01:03 / …

| binding result [1] | binding result [2] | binding result [3] | binding result [4] | Binder |
| --- | --- | --- | --- | --- |
| no recognition | recognises | no recognition | recognises | TCR-ID-1 (TCR, V domains shown) Valpha: GNSVTQMEGPVTLSEEAFLTINCTYTATGYPSLFWYVQYPGEGLQLLLKATKADDKGSNKGFEATYRKETTSFHLEKGSVQVSDSAVYFCALSENAGNQFYFGTGTSLTVIP Vbeta: NAGVTQTPKFQVLKTGQSMTLQCAQDMNHEYMSWYRQDPGMGLRLIHYSVGAGITDQGEVPNGYNVSRSTTEDFPLRLLSAAPSQTSVYFCASSRGNTQYFGPGTRLTVL |
| no recognition | recognises | no recognition | recognises | TCR-ID-2 (TCR, V domains shown) Valpha: AQKITQTQPGMFVQEKEAVTLDCTYDTSDQSYGLFWYKQPSSGEMIFLIYQGSYDEQNATEGRYSLNFQKARKSANLVISASQLGDSAMYFCAMREGDGDDMRFGAGTRLTVKP Vbeta: EPEVTQTPSHQVTQMGQEVILRCVPISNHLYFYWYRQILGQKVEFLVSFYNNEISEKSEIFDDQFSVERPDGSNFTLKIRSTKLEDSAMYFCASSSQIQTVMNTEAFFGQGTRLTVV |
| – | recognises | no recognition | recognises | TCR-ID-3 (TCR, V domains shown) Valpha: DQQVKQNSPSLSVQEGRISILNCDYTNSMFDYFLWYKKYPAEGPTFLISISSIKDKNEDGRFTVFLNKSAKHLSLHIVPSQPGDSAVYFCAASGHGGSQGNLIFGKGTKLSVKP Vbeta: GAGVSQSPRYKVAKRGQDVALRCDPISGHVSLFWYQQALGQGPEFLTYFQNEAQLDKSGLPSDRFFAERPEGSVSTLKIQRTQQEDSAVYLCASSLRFLGQGSYEQYFGPGTRLTVT |
